One block for each molecule: values may come before it. Square brackets hold non-standard residues; d marks the D form. Ends that are not written are not given here. pT = C[C@@H](OP(=O)(O)O)[C@H](N)C(=O)O
Legend:
[1] = molecular target: Drosophila Numb PTB domain (aa 65-203) (Drosophila) (UniProt P16554)
[2] = molecular target: Drosophila Numb PTB domain (aa 65-203) (Drosophila) (UniProt P16554); remark: listed apart in the source
[3] = molecular target: T1, Numb PTB R171A (Drosophila, UniProt P16554-1 65-203, R171A); experiment: ITC; Pon fragments (~0.5 mM) injected into PTB proteins (~0.05 mM); 20 °C; 50 mM Tris pH 8.0, 100 mM NaCl, 1 mM EDTA, 1 mM β-ME; one-site binding model
T1 sequence: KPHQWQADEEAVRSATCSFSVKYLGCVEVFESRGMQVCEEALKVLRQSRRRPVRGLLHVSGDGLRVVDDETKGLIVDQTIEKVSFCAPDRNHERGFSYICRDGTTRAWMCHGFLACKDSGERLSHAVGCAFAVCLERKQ

[4] = molecular target: Drosophila Numb PTB domain (aa 65-203) (Drosophila) (UniProt P16554); experiment: as above
[5] = molecular target: Drosophila Numb PTB domain (aa 65–203), P16554-1; experiment: ITC; conditions: parent: 1.80 ± 0.17
[6] = molecular target: T2, Drosophila Numb PTB domain (aa 65-203) (Drosophila, UniProt P16554-1 65-203); experiment: ITC; Pon fragments (~0.5 mM) injected into PTB proteins (~0.05 mM); 20 °C; 50 mM Tris pH 8.0, 100 mM NaCl, 1 mM EDTA, 1 mM β-ME; one-site binding model; conditions: both partners purified
T2 construct: Numb, Drosophila, PTB domain, residues 65-203; theoretical mass 15.7 kDa in the ultracentrifugation; also called dNumb PTB; Numb 65-203; source: E. coli BL21 (DE3), purified (Ni2+-NTA, SEC); not shown: His tag, N-terminal, cleaved
T2 sequence (looked up): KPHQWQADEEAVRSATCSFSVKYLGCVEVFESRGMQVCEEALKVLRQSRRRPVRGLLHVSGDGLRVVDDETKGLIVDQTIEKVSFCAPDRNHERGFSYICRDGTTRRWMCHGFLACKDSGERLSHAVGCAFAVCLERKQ

[7] = molecular target: T3, Drosophila Numb PTB domain (aa 65–203) (Drosophila, UniProt P16554-1 65-203); experiment: AUC; sedimentation velocity, 42,000 rpm, 4 °C, interference detection, SEDFIT; Numb PTB with three molar ratios of Nak AB, or with Pon A2B2; conditions: both partners purified
T3 construct: Numb PTB domain, Drosophila, Uniprot P16554-1, aa 65-203; source: E. coli BL21 (DE3), purified (Ni2+-NTA, SEC); not shown: His tag, N-terminal, cleaved
T3 sequence (looked up): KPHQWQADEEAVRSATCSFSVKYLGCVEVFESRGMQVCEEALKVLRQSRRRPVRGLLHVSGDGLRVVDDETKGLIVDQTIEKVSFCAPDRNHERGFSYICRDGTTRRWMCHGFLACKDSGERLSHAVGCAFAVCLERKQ

[8] = molecular target: T3, Drosophila Numb PTB domain (aa 65–203); experiment: ITC; ITC200, 20 °C, buffer A (50 mM Tris pH 8.0, 1 mM EDTA, 1 mM β-ME, 100 mM NaCl); Pon fragments (~0.5 mM) injected into PTB proteins (~0.05 mM); one-site binding model; conditions: both partners purified
[9] = molecular target: T4, Drosophila Numb PTB domain (aa 65–203) (Drosophila, UniProt P16554-1 65-203); experiment: ITC
T4 chain: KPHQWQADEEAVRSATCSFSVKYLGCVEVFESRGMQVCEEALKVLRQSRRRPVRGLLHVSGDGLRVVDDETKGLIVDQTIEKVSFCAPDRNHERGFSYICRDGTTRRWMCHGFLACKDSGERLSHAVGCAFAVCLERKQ

[10] = molecular target: T4, Drosophila Numb PTB domain (aa 65–203); experiment: ITC
[11] = molecular target: T1, Numb PTB R171A; experiment: ITC

Molecule: Pon 110-148 (B1A2) (domain or fragment)
Kd [3]: > 100 µM | Kd [4]: 8.77 µM

Molecule: Pon 130-162 (A2B2) (domain or fragment)
Kd [3]: > 100 µM | Kd [4]: 1 µM

Molecule: Pon 157-200 (A3B3) (domain or fragment)
Kd [4]: 12.2 µM

Molecule: Pon A2B2 N152P153A (domain or fragment)
Kd [4]: 48.3 µM

B2: Nak AB fragment (Numb-associated kinase, C-terminal A and B motifs) (peptide)
chain: QNSAKTGFSNMSFEDFPSDQEMDRLSRTIPFEVVRNEKML
stoichiometry N [7]: 1

B7: Pon 1-116 (A1) (domain or fragment)
chain: MLETKSIAALAFTETPRKRKRETLYKNAAPPPNPQQQPPEKDAQDAAVASTESCFTNAAFSSTPKKLMVARRRLAKENSQPNPFPGLEVKSIADLAQKQQHQQHHQQQQQQQQKLP
Kd [6]: ~70 µM

B8: Pon 124-148/130-148 (A2) (domain or fragment)
chain: KKREHACFENPGLNLELPE
Kd [6]: > 100 µM

B10: Pon 1-130/41-130 (A1B1) (domain or fragment)
chain: MLETKSIAALAFTETPRKRKRETLYKNAAPPPNPQQQPPEKDAQDAAVASTESCFTNAAFSSTPKKLMVARRRLAKENSQPNPFPGLEVKSIADLAQKQQHQQHHQQQQQQQQKLPTNPFEVLRQPPKKK
Kd [6]: 18.1 ± 2.2 µM

B12: Pon A2B2 K149A (peptide)
chain: KKKKREHACFENPGLNLELPEAQFNPYEVVRSA
Kd [10]: 5.46 µM

B13: Pon A2B2 fragment (peptide)
chain: KKKKREHACFENPGLNLELPEKQFNPYEVVRSA
Kd [9]: 1.8 µM | Kd [11]: > 100 µM

B16: Pon A1 (peptide)
chain: AAVASTESCFTNAAFSST
Kd [9]: > 70 µM

B17: Pon A2B2 K148A (domain or fragment)
chain: KKREHACFENPGLNLELPEAQFNPYEVVRSATT
Kd [6]: 0.48 ± 0.02 µM

B18: Pon A2B2 Y154E (domain or fragment)
chain: KKREHACFENPGLNLELPEKQFNPEEVVRSATT
Kd [6]: > 100 µM

B19: Pon A2B2 R158A (domain or fragment)
chain: KKREHACFENPGLNLELPEKQFNPYEVVASATT
Kd [6]: > 100 µM

Results, then the molecule that gave them:

in vitro phase transition, sedimentation assay: share of the proteins in the condensed liquid phase against the molar ratio, highest at 1:3 Pon A1B3 to Numb PTB [1]: > 90% | in vitro phase transition, sedimentation assay: share of Numb PTB and Pon A1B3 recovered from the condensed liquid phase, 1:1 mixture, 25 to 100 μM [2]: 80%
Molecule: Pon N-terminal fragment (aa 1–228), A1B1A2B2A3B3 (domain or fragment)

Kd [5]: 49.3 µM
Molecule: Pon A2B2 fragment N152A; P153A

Kd [6]: 11.3 ± 0.37 µM
B1: pPon peptide (peptide)
peptide: ESCFTNAAFSS[pT]PKK
notes: Pon, Drosophila; the peptide holds the A1 motif FTNAAF; the range is counted from N57 of the A1 motif; source: synthetic peptide

Kd [8]: ~11 µM
B3: pPon peptide (peptide)
peptide: ESCFTNAAFSS[pT]PKK
notes: Pon, Drosophila; stretch with the A1 motif FTNAAF (N57) followed by the phosphorylated threonine; limits worked out by setting the Asn of FTNAAF to N57 of the A1 motif; source: synthetic peptide (commercially synthesized)

Kd [9]: 12.2 µM
B4: Pon A3B3 fragment (peptide)
chain: VRSATTPAKGFVNPALNLRGSDAPASLNPFEIHRPSEASEAACN

Kd [10]: > 100 µM
B5: Pon single-AB fragment with E121A in the B1 motif (peptide)
chain: QQKLPTNPFAVLRQPPKKKKREHACFENPGLNLE

Kd [9]: 8.77 µM | Kd [11]: > 100 µM
B6: Pon B1A2 fragment (peptide)
chain: QQKLPTNPFEVLRQPPKKKKREHACFENPGLNLE

Kd [6]: > 100 µM
B9: Pon B1A2 E121A (domain or fragment)
chain: QQQQKLPTNPFAVLRQPPKKKKREHACFENPGLNLELPE

Kd [10]: 49.3 µM
B11: Pon single-AB fragment with N152,P153A in the B2 motif (peptide)
chain: KKKKREHACFENPGLNLELPEKQFAAYEVVRSA

Kd [10]: > 100 µM
B14: Pon single-AB fragment with Y154E in the B2 motif (peptide)
chain: KKKKREHACFENPGLNLELPEKQFNPEEVVRSA

Kd [10]: > 100 µM
B15: Pon single-AB fragment with R158A in the B2 motif (peptide)
chain: KKKKREHACFENPGLNLELPEKQFNPYEVVASA
